From patent US20040086521A1, “Method for the identification of antigenic peptides” (priority 2002, published 2004)

Tests used:
DRB1*0401 = DRB1*0401 (Homo sapiens, UniProt P01903+P01911, A100K/A169T/F76Y/I96L/K127E/L162R/M171V/N62H/P40V/Q125Y/R42H/S133A/S149N/S66Y/V115G/V209L/W38E); experiment: MHC peptide binding studies with synthetic peptide; details: MHC peptide binding study
DRB1*0101 = DRB1*0101 (Homo sapiens, UniProt P01903+P01911, A100R/D57E/F55L/F60I/F76Y/I96L/L162R/M171V/P40L/Q125E/R42F/V115G/Y59C); experiment: MHC peptide binding studies with synthetic peptide; details: MHC peptide binding study
DRB5*0101 = DRB5*0101 (Homo sapiens, UniProt P01903+Q30154); experiment: MHC peptide binding studies with synthetic peptide; details: MHC peptide binding study
HLA-DR allele DRB1*0401 = HLA-DR allele DRB1*0401 (human); experiment: MHC peptide binding study with synthetic peptide
HLA-DR allele DRB1*0101 = HLA-DR allele DRB1*0101 (human); experiment: MHC peptide binding study with synthetic peptide
HLA-DR allele DRB5*0101 = HLA-DR allele DRB5*0101 (human); experiment: MHC peptide binding study with synthetic peptide

| Molecule | binding capacity to allele DRB1*0401 (DRB1*0401) | binding capacity to allele DRB1*0101 (DRB1*0101) | binding capacity to allele DRB5*0101 (DRB5*0101) | binding result (HLA-DR allele DRB1*0401) | binding result (HLA-DR allele DRB1*0101) | binding result (HLA-DR allele DRB5*0101) |
| --- | --- | --- | --- | --- | --- | --- |
| KPGKTKTIVYQRGILLPQ | revealed the same | confirmed the binding capacity | confirmed the binding capacity |  |  |  |
| KPGKTKTIVYQRGILLPQ |  |  |  | binds | binds | binds |
